# Measured values published in the Human Domainome abundance scans (Beltran et al. 2025).
# ± gives the uncertainty stated by the source.
# B1: Unconventional myosin-Ie, residues 1051 to 1108; numbered along this chain, Q12965 (parent)
# chain: PQVPQCKALYAYDAQDTDELSFNANDIIDIIKEDPSGWWTGRLRGKQGLFPNNYVTKI
# Variants of: B1
# Assay: abundance fitness (aPCA) (normalised: wild type 0, dead -1); higher = more abundant; growth selection in yeast, the domain comes from the species named
# Settings: Homo sapiens
row,Variant,abundance fitness
1,D16N,-0.052 ± 0.052
2,D16Y,-0.093 ± 0.088
3,D16G,-0.156 ± 0.047
4,D16W,-0.231 ± 0.049
5,D16P,-0.798 ± 0.076
6,E19A,-0.288 ± 0.069
7,E19D,-0.54 ± 0.09
8,E19V,-0.382 ± 0.06
9,E19L,-0.435 ± 0.081
10,E19I,-0.548 ± 0.22
11,Y54A,-0.055 ± 0.032
12,Y54D,-0.949 ± 0.06
13,Y54G,-0.713 ± 0.089
14,Y54F,-0.243 ± 0.096
15,D34F,-0.332 ± 0.12
16,D34K,-0.445 ± 0.087
17,P1Q,0.05 ± 0.093
18,P1T,0.057 ± 0.05
19,P1D,-0.164 ± 0.2
20,R42I,-0.356 ± 0.16
21,R42K,0.104 ± 0.076
22,R42T,-0.114 ± 0.063
23,D26Y,-0.776 ± 0.19
24,D26R,-0.948 ± 0.089

row,Variant,abundance fitness
1,A8N,-0.853 ± 0.33
2,A8G,-0.748 ± 0.077
3,D29A,-0.205 ± 0.043
4,D29M,-0.243 ± 0.076
5,D29K,-0.555 ± 0.12
6,Q2G,-0.102 ± 0.054
7,W39D,-0.819 ± 0.15
8,W39N,-0.352 ± 0.11
9,W39E,-1 ± 0.22
10,W39H,-0.732 ± 0.22
11,W39S,-0.138 ± 0.048
12,K57G,-0.391 ± 0.047
13,K57W,-0.554 ± 0.065
14,K57Y,0.151 ± 0.087
15,T17A,0.026 ± 0.048
16,T17K,-0.18 ± 0.082
17,T17W,-0.091 ± 0.035
18,T17M,-0.043 ± 0.043
19,L9V,-0.148 ± 0.039
20,L9R,-0.291 ± 0.042
21,L9I,-0.375 ± 0.13
22,I27D,-0.618 ± 0.038
23,I27L,-0.15 ± 0.047
24,S36F,-0.279 ± 0.064

row,Variant,abundance fitness
1,S36E,-0.279 ± 0.065
2,S36R,-0.073 ± 0.033
3,I30A,-0.78 ± 0.12
4,I30N,-0.85 ± 0.32
5,A24V,-0.05 ± 0.034
6,A24W,-0.481 ± 0.077
7,A24N,-0.648 ± 0.29
8,A24I,-0.04 ± 0.061
9,S21E,-0.247 ± 0.039
10,S21A,-0.263 ± 0.057
11,S21Q,-0.325 ± 0.087
12,A14M,-0.42 ± 0.12
13,A14R,-0.377 ± 0.035
14,I31M,-0.051 ± 0.078
15,I31C,-0.089 ± 0.064
16,D18Q,-0.152 ± 0.044
17,K7I,0.004 ± 0.075
18,K7L,-0.106 ± 0.052
19,K7F,-0.267 ± 0.054
20,K7Y,-0.074 ± 0.045
21,K7E,-0.264 ± 0.069
22,K7P,-0.945 ± 0.064
23,K7W,-0.26 ± 0.066
24,D13S,-0.189 ± 0.055

row,Variant,abundance fitness
1,D13A,-0.156 ± 0.051
2,D13F,-0.293 ± 0.057
3,D13T,0.012 ± 0.065
4,V55G,-0.94 ± 0.11
5,V55M,-0.534 ± 0.086
6,V55S,-0.732 ± 0.13
7,V55C,-0.197 ± 0.063
8,V55T,-0.111 ± 0.052
9,T40S,-0.082 ± 0.05
10,T40W,-0.062 ± 0.051
11,T40Q,-0.075 ± 0.066
12,T40Y,-0.07 ± 0.041
13,Y10C,-0.14 ± 0.058
14,Y10Q,-0.054 ± 0.057
15,Y10E,-0.217 ± 0.05
16,Y10N,-0.472 ± 0.1
17,G37A,-0.573 ± 0.043
18,G37H,-0.883 ± 0.21
19,G37R,-0.574 ± 0.053
20,T56S,-0.042 ± 0.047
21,T56A,-0.075 ± 0.041
22,T56W,-0.122 ± 0.076
23,I28L,0.237 ± 0.46
24,Q15S,-0.261 ± 0.083

row,Variant,abundance fitness
1,P35G,-0.021 ± 0.041
2,P35R,-0.094 ± 0.04
3,P51F,-0.302 ± 0.25
4,N53K,-0.066 ± 0.089
5,N53F,0.071 ± 0.1
6,N53S,-0.262 ± 0.052
7,N53C,-0.021 ± 0.054
8,N53A,-0.147 ± 0.056
9,N53Y,-0.22 ± 0.1
10,I58V,-0.055 ± 0.039
11,I58Y,-0.299 ± 0.2
12,I58L,-0.091 ± 0.078
13,E33G,-0.935 ± 0.14
14,C6L,-0.866 ± 0.069
15,C6D,-0.807 ± 0.12
16,C6M,-0.172 ± 0.12
17,C6K,-1 ± 0.18
18,N23E,0.005 ± 0.041
19,V3I,-0.145 ± 0.079
20,L20M,-0.214 ± 0.046
21,L20V,-0.879 ± 0.11
22,L20C,-0.708 ± 0.19
23,L20N,-0.764 ± 0.35
24,F22T,-0.793 ± 0.21

row,Variant,abundance fitness
1,F50I,0.069 ± 0.076
2,F50P,-0.896 ± 0.33
3,F50K,-1.07 ± 0.2
4,Y12I,-0.966 ± 0.31
5,Y12K,-0.54 ± 0.12
6,Y12W,-0.15 ± 0.039
7,Y12T,-0.836 ± 0.15
8,A11S,-0.023 ± 0.058
9,A11N,0.022 ± 0.17
10,A11F,-0.388 ± 0.12
11,G45D,-0.075 ± 0.076
12,G45C,-0.303 ± 0.086
13,G45V,-0.762 ± 0.095
14,G45R,-0.337 ± 0.043
15,R44M,-0.179 ± 0.057
16,R44V,-0.19 ± 0.069
17,R44H,-0.236 ± 0.12
18,R44I,-0.759 ± 0.25
19,R44Q,-0.071 ± 0.036
20,R44F,-0.134 ± 0.096
21,Q5E,-0.467 ± 0.081
22,Q5L,-0.135 ± 0.044
23,Q5V,-0.065 ± 0.043
24,Q5W,-0.281 ± 0.063

row,Variant,abundance fitness
1,N25Q,-0.058 ± 0.054
2,N25R,-0.142 ± 0.033
3,G48K,-0.718 ± 0.16
4,G48N,-0.626 ± 0.17
5,G48C,-0.477 ± 0.2
6,G48L,-0.399 ± 0.25
7,K46F,-0.364 ± 0.18
8,K46Y,-0.351 ± 0.19
9,K46P,-0.715 ± 0.21
10,K46V,-0.051 ± 0.063
11,K46I,-0.351 ± 0.11
12,G41N,-0.87 ± 0.14
13,G41D,-0.899 ± 0.11
14,G41K,-1.03 ± 0.28
15,G41H,-0.83 ± 0.28
16,N52H,-0.087 ± 0.1
17,L43V,-0.063 ± 0.037
18,L43E,-0.701 ± 0.068
19,L43W,-0.706 ± 0.11
20,L49A,-0.236 ± 0.065
21,L49E,-0.242 ± 0.057
22,L49C,-0.025 ± 0.067
23,L49D,-0.319 ± 0.094
